We go through one substance from patent US20160177392A1.

The test addresses soybean alpha-SNAP from the Rhg1 locus, full length, with C-terminal six-histidine tag (soybean (Glycine max)). The test can be described thus: gel filtration (Superdex 75); HgSLP-1 alone eluted at fraction 23, albumin standard (67 kDa) at fraction 12, chymotrypsinogen A (25 kDa) at fraction 30.

For the substance “Heterodera glycines SNARE-like protein 1 (HgSLP-1), full length, expressed in E. coli”, the elution fraction of HgSLP-1 in gel filtration came out at 15.
